Assay results taken from PMC4005645, “Molecular basis for the wide range of affinity found in Csr/Rsm protein–RNA recognition”.

Assays:
RsmE [1] = target: T1, RsmE (Pseudomonas fluorescens CHA0, UniProt P0DPC3 1-64); experiment: NMR structure; slow exchange; ITC: 300 mM NaCl, 50 mM potassium phosphate pH 8.0, 298 K; NMR: 30 mM NaCl, 50 mM potassium phosphate pH 7.2, 313 K; settings: protein: recombinant; tags: C-terminal His tag; chain copies: 2; hairpin
T1 sequence: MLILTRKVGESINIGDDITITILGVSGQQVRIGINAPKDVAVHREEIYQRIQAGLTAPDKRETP

RsmE [2] = target: T1, RsmE; experiment: ITC; first RNA on dimer, two-site fit; ITC: 300 mM NaCl, 50 mM potassium phosphate pH 8.0, 298 K; NMR: 30 mM NaCl, 50 mM potassium phosphate pH 7.2, 313 K; settings: protein: recombinant; tags: C-terminal His tag; chain copies: 2; hairpin
RsmE [3] = target: T1, RsmE; experiment: ITC; second RNA on dimer, two-site fit; ITC: 300 mM NaCl, 50 mM potassium phosphate pH 8.0, 298 K; NMR: 30 mM NaCl, 50 mM potassium phosphate pH 7.2, 313 K; settings: protein: recombinant; tags: C-terminal His tag; chain copies: 2; hairpin
RsmE [4] = target: T1, RsmE; experiment: ITC; two-site fit, high affinity, similar to SL2; values in figure; ITC: 300 mM NaCl, 50 mM potassium phosphate pH 8.0, 298 K; NMR: 30 mM NaCl, 50 mM potassium phosphate pH 7.2, 313 K; settings: protein: recombinant; tags: C-terminal His tag; chain copies: 2; hairpin
RsmE [5] = target: T1, RsmE; experiment: ITC; intermediate affinity; value in figure; ITC: 300 mM NaCl, 50 mM potassium phosphate pH 8.0, 298 K; NMR: 30 mM NaCl, 50 mM potassium phosphate pH 7.2, 313 K; settings: protein: recombinant; tags: C-terminal His tag; chain copies: 2

GGGUGUCGACGGAUAGACACCC (structured_RNA) [RsmZ SL1]: binds (RsmE [1]).

GGGCCAUCAAGGACGAUGGUCC (structured_RNA) [RsmZ SL2] gave a Kd (RsmE [2]) of 16 ± 3 nM and a Kd (RsmE [3]) of 185 ± 3 nM.

GGGCUUCACGGAUGAAGCCC (structured_RNA) [20nt-RBS (hcnA GGA#5)]: binds (RsmE [4]).

GAGCAUGGACGGCGAGACGCCGGGUA (structured_RNA) [hcnA-GGA#3]: binds (RsmE [5]).

GGGAUCGCAGGAAGCGAUCCC (structured_RNA) [RsmZ SL3]: binds (RsmE [1]).

GGGUCAUCAGGACGAUGACCC (structured_RNA) [RsmZ SL4]: binds (RsmE [1]).
